According to article PMC10761851, “Asymmetric α-benzylation of cyclic ketones enabled by concurrent chemical aldol condensation and biocatalytic reduction” (Nature Communications, 2024):

B1: YqjM (Bacillus subtilis subsp. subtilis str. 168) (protein)
chain: ARKLFTPITIKDMTLKNRIVMSPMCMYSSHEKDGKLTPFHMAHYISRAIGQVGLIIVEASAVNPQGRITDQDLGIWSDEHIEGFAKLTEQVKEQGSKIGIQLAHAGRKAELEGDIFAPSAIAFDEQSATPVEMSAEKVKETVQEFKQAAARAKEAGFDVIEIHAAHGYLIHEFLSPLSNHRTDEYGGSPENRYRFLREIIDEVKQVWDGPLFVRVSASDYTDKGLDIADHIGFAKWMKEQGVDLIDCSSGALVHADINVFPGYQVSFAEKIREQADMATGAVGMITDGSMAEEILQNGRADLIFIGRELLRDPFFARTAAKQLNTEIPAPVQYERGW
notes: ene-reductase, FMN enzyme
B2: YqjM (Bacillus subtilis subsp. subtilis str. 168; C26A/I69Y) (protein)
chain: ARKLFTPITIKDMTLKNRIVMSPMAMYSSHEKDGKLTPFHMAHYISRAIGQVGLIIVEASAVNPQGRYTDQDLGIWSDEHIEGFAKLTEQVKEQGSKIGIQLAHAGRKAELEGDIFAPSAIAFDEQSATPVEMSAEKVKETVQEFKQAAARAKEAGFDVIEIHAAHGYLIHEFLSPLSNHRTDEYGGSPENRYRFLREIIDEVKQVWDGPLFVRVSASDYTDKGLDIADHIGFAKWMKEQGVDLIDCSSGALVHADINVFPGYQVSFAEKIREQADMATGAVGMITDGSMAEEILQNGRADLIFIGRELLRDPFFARTAAKQLNTEIPAPVQYERGW
notes: ene-reductase, FMN enzyme
B3: YqjM (Bacillus subtilis subsp. subtilis str. 168; C26G/I69Y/Y28F) (protein)
chain: ARKLFTPITIKDMTLKNRIVMSPMGMFSSHEKDGKLTPFHMAHYISRAIGQVGLIIVEASAVNPQGRYTDQDLGIWSDEHIEGFAKLTEQVKEQGSKIGIQLAHAGRKAELEGDIFAPSAIAFDEQSATPVEMSAEKVKETVQEFKQAAARAKEAGFDVIEIHAAHGYLIHEFLSPLSNHRTDEYGGSPENRYRFLREIIDEVKQVWDGPLFVRVSASDYTDKGLDIADHIGFAKWMKEQGVDLIDCSSGALVHADINVFPGYQVSFAEKIREQADMATGAVGMITDGSMAEEILQNGRADLIFIGRELLRDPFFARTAAKQLNTEIPAPVQYERGW
notes: ene-reductase, FMN enzyme
B4: YqjM (Bacillus subtilis subsp. subtilis str. 168; I69G) (protein)
chain: ARKLFTPITIKDMTLKNRIVMSPMCMYSSHEKDGKLTPFHMAHYISRAIGQVGLIIVEASAVNPQGRGTDQDLGIWSDEHIEGFAKLTEQVKEQGSKIGIQLAHAGRKAELEGDIFAPSAIAFDEQSATPVEMSAEKVKETVQEFKQAAARAKEAGFDVIEIHAAHGYLIHEFLSPLSNHRTDEYGGSPENRYRFLREIIDEVKQVWDGPLFVRVSASDYTDKGLDIADHIGFAKWMKEQGVDLIDCSSGALVHADINVFPGYQVSFAEKIREQADMATGAVGMITDGSMAEEILQNGRADLIFIGRELLRDPFFARTAAKQLNTEIPAPVQYERGW
notes: ene-reductase, FMN enzyme
B5: YqjM (Bacillus subtilis subsp. subtilis str. 168; C26G/I69Y) (protein)
chain: ARKLFTPITIKDMTLKNRIVMSPMGMYSSHEKDGKLTPFHMAHYISRAIGQVGLIIVEASAVNPQGRYTDQDLGIWSDEHIEGFAKLTEQVKEQGSKIGIQLAHAGRKAELEGDIFAPSAIAFDEQSATPVEMSAEKVKETVQEFKQAAARAKEAGFDVIEIHAAHGYLIHEFLSPLSNHRTDEYGGSPENRYRFLREIIDEVKQVWDGPLFVRVSASDYTDKGLDIADHIGFAKWMKEQGVDLIDCSSGALVHADINVFPGYQVSFAEKIREQADMATGAVGMITDGSMAEEILQNGRADLIFIGRELLRDPFFARTAAKQLNTEIPAPVQYERGW
notes: ene-reductase, FMN enzyme
B6: YqjM (Bacillus subtilis subsp. subtilis str. 168; C26G/I69Y/Y169F) (protein)
chain: ARKLFTPITIKDMTLKNRIVMSPMGMYSSHEKDGKLTPFHMAHYISRAIGQVGLIIVEASAVNPQGRYTDQDLGIWSDEHIEGFAKLTEQVKEQGSKIGIQLAHAGRKAELEGDIFAPSAIAFDEQSATPVEMSAEKVKETVQEFKQAAARAKEAGFDVIEIHAAHGFLIHEFLSPLSNHRTDEYGGSPENRYRFLREIIDEVKQVWDGPLFVRVSASDYTDKGLDIADHIGFAKWMKEQGVDLIDCSSGALVHADINVFPGYQVSFAEKIREQADMATGAVGMITDGSMAEEILQNGRADLIFIGRELLRDPFFARTAAKQLNTEIPAPVQYERGW
notes: ene-reductase, FMN enzyme
B7: YqjM (Bacillus subtilis subsp. subtilis str. 168; I69Y) (protein)
chain: ARKLFTPITIKDMTLKNRIVMSPMCMYSSHEKDGKLTPFHMAHYISRAIGQVGLIIVEASAVNPQGRYTDQDLGIWSDEHIEGFAKLTEQVKEQGSKIGIQLAHAGRKAELEGDIFAPSAIAFDEQSATPVEMSAEKVKETVQEFKQAAARAKEAGFDVIEIHAAHGYLIHEFLSPLSNHRTDEYGGSPENRYRFLREIIDEVKQVWDGPLFVRVSASDYTDKGLDIADHIGFAKWMKEQGVDLIDCSSGALVHADINVFPGYQVSFAEKIREQADMATGAVGMITDGSMAEEILQNGRADLIFIGRELLRDPFFARTAAKQLNTEIPAPVQYERGW
notes: ene-reductase, FMN enzyme

Columns and labels:
purified protein [1] = substrate: O=C1CCC/C1=C\c1ccccc1; assay: purified protein; type: biochemical, Bacillus subtilis; settings: 1.0 mM NADPH, 10 μM enzyme, PBS 100 mM, pH 7.5, 30 °C
purified protein [2] = substrate: O=C1CCCC/C1=C\c1ccccc1; assay: purified protein; type: biochemical, Bacillus subtilis; settings: 1.0 mM NADPH, 10 μM enzyme, PBS 100 mM, pH 7.5, 30 °C

Protein	Km (purified protein [1])	kcat (purified protein [1])	kcat/Km (purified protein [1])	Km (purified protein [2])	kcat (purified protein [2])	kcat/Km (purified protein [2])
B1	8.35 ± 0.2 mM	0.23 ± 0.005 s⁻¹	30 M⁻¹ s⁻¹	7.98 ± 0.18 mM	0.19 ± 0.009 s⁻¹	20 M⁻¹ s⁻¹
B2	2.65 ± 0.02 mM	0.89 ± 0.023 s⁻¹	340 M⁻¹ s⁻¹	2.98 ± 0.1 mM	1.12 ± 0.02 s⁻¹	380 M⁻¹ s⁻¹
B3	2.21 ± 0.02 mM	0.49 ± 0.012 s⁻¹	220 M⁻¹ s⁻¹			
B4	3.56 ± 0.08 mM	0.39 ± 0.012 s⁻¹	110 M⁻¹ s⁻¹	3.48 ± 0.11 mM	0.43 ± 0.01 s⁻¹	120 M⁻¹ s⁻¹
B5	1.21 ± 0.01 mM	1.59 ± 0.03 s⁻¹	1310 M⁻¹ s⁻¹	1.1 ± 0.03 mM	1.86 ± 0.05 s⁻¹	1690 M⁻¹ s⁻¹
B6	1.69 ± 0.01 mM	0.56 ± 0.009 s⁻¹	330 M⁻¹ s⁻¹			
B7	4.25 ± 0.09 mM	0.65 ± 0.015 s⁻¹	150 M⁻¹ s⁻¹	4.56 ± 0.12 mM	0.87 ± 0.012 s⁻¹	190 M⁻¹ s⁻¹
